Results on 2 substances are retold here after paper PMC8233224, “Crystal structure of a homotrimeric verrucomicrobial exo-β-1,4-mannosidase active in the hindgut of the wood-feeding termite Reticulitermes flavipes” (Journal of Structural Biology: X, 2021).

“And” between values parts separate entries of the source, which are not always exact repeats. Equal entries are not always repeated.

Data set [1] deals with T1, O=[N+]([O-])c1ccc(O[C@@H]2O[C@H](CO)[C@@H](O)[C@H](O)[C@@H]2O)cc1.
T1 construct: full length, 594 residues, no secretion signal; C-terminal non-cleavable His6 tag (pNIC-CH2), E. coli BL21(DE3) T1R; synthetic gene; ESI-MS 66824 g/mol; homotrimer ~200 kDa; N-terminus MTIDSSGY from primer
Kind of data set: purified protein. The class given is biochemical, Opitutaceae bacterium. As to conditions: 50 mM sodium phosphate pH 6.0, 40 °C, 10 min, apparent.

For data set [2], the target named is exo-β-1,4-mannosidase from Opitutaceae bacterium strain TAV5 (Op5Man5) (Opitutaceae bacterium strain TAV5). Kind of data set: SEC; Superdex 200 10/300 GL, 20 mM Tris-HCl pH 8.0 and 8.5 with 300 mM NaCl, 4 °C, standard curve of reference proteins.
For data set [3] the target is unchanged. The data set can be described thus: cryo-EM structure; single particle cryo-EM at pH 7.5 of pooled SEC fractions with the trimeric species, 0.12 mg/ml; 3.7 Å map.
For data set [4] the target is unchanged. Kind of data set: crystal structure; crystals from 0.1 M phosphorus citrate pH 4.2, 30% ethanol, 5% PEG 1000; space group P212121; 2.2 Å.
Data set [5] has the same target. The data set can be described thus: cross-linking; glutaraldehyde 0.4% w/v, protein 0.2 mg/ml, 37 °C, 0 to 60 min, SDS-PAGE (15%).
The target is the same in data set [6]. The data set can be described thus: SEC; Superdex 200 10/300 GL, 20 mM buffer with 300 mM NaCl, pH 5.5-6.5 (sodium acetate pH 5.5; MES pH 6.0 and 6.5), 4 °C, standard curve of reference proteins.
Data set [7] shares this target. The data set can be described thus: SEC; Superdex 200 10/300 GL, 20 mM HEPES pH 7.5 with 300 mM NaCl, 4 °C, standard curve of reference proteins.

As for Op5Man5 (Opitutaceae bacterium), in data set [1], the Km was found to be 1000 ± 130 µM, the turnover number (kcat) is 239 ± 7.7 s⁻¹ and the kcat/Km was determined as 239000 ± 7700 M⁻¹ s⁻¹.

Take “exo-β-1,4-mannosidase from Opitutaceae bacterium strain TAV5 (Op5Man5) (enzyme)”: the stoichiometry N in data set [2] was 3; in data set [3], 3; in data set [4] it was 3; in data set [5] it was 3 and 6; in data set [6] it was 3; in data set [7], 3 and 6.
